target: HLA-A*0201 (Homo sapiens, UniProt P04439, D140Y/D185E/D98H/E176V/E277Q/G131W/G231S/I119V/I121R/I166T/I218V/L300P/L318F/N151K/N90K/P208A/P217A/Q86G/Q94H/R138H/R169H/T345S); experiment: UV-ligand exchange with ELISA of stabilized MHC complexes; assay type: binding; details: ELISA detecting β2m of stabilized MHC complexes
Excerpt: Candidate peptides for the vaccines according to the present invention were further tested for immunogenicity by in vitro priming assays. The individual peptide-MHC complexes required for these assays were produced by UV-ligand exchange, where a UV-sensitive peptide is cleaved upon UV-irradiation, and exchanged with the peptide of interest as analyzed. Only peptide candidates that can effectively bind and stabilize the peptide-receptive MHC molecules prevent dissociation of the MHC complexes. To determine the yield of the exchange reaction, an ELISA was performed based on the detection of the light chain (β2m) of stabilized MHC complexes. The assay was performed as generally described in Rodenko et al. (Rodenko B, Toebes M, Hadrup S R, van Esch W J, Molenaar A M, Schumacher T N, Ovaa H. Generation of peptide-MHC class I complexes through UV-mediated ligand exchange. Nat Protoc. 2006; 1(3):1120-32.).
96 well MAXISorp plates (NUNC) were coated over night with 2 ug/ml streptavidin in PBS at room temperature, washed 4× and blocked for 30 min at 37° C. in 2% BSA containing blocking buffer. Refolded HLA-A*0201/MLA-001 monomers served as standards, covering the range of 8-500 ng/ml. Peptide-MHC monomers of the UV-exchange reaction were diluted 100 fold in blocking buffer. Samples were incubated for 1 h at 37° C., washed four times, incubated with 2 ug/ml HRP conjugated anti-β2m for 1 h at 37° C., washed again and detected with TMB solution that is stopped with […]. Absorption was measured at 450 nm.

Substance | Average exchange yield in % [%]
RLLJAAENFL (RLLAAENFL; listed as Homo sapiens) [SEQ ID NO 49] | 47

same assay, conditions: class symbol

Substance | Exchange yield
GLYPDAFAPV (listed as Homo sapiens) [SEQ ID NO 25] | +++ (50%-70%, +++)
YLPHAPPFA (listed as Homo sapiens) [SEQ ID NO 53] | +++ (50%-70%, +++)
TLSSIKVEV (listed as Homo sapiens) [SEQ ID NO 5] | +++ (50%-70%, +++)
SMSGYDQVL (listed as Homo sapiens) [SEQ ID NO 8] | ++ (20%-49% = ++)
NLLAEIHGV (listed as Homo sapiens) [SEQ ID NO 44] | ++++ (>70 = ++++)
SLYDNQITTV (listed as Homo sapiens) [SEQ ID NO 78] | ++ (20%-49% = ++)
AIDGNNHEV (listed as Homo sapiens) [SEQ ID NO 31] | ++ (20%-49% = ++)
TLISRLPAV (listed as Homo sapiens) [SEQ ID NO 61] | ++++ (>70 = ++++)
KLAVALLAA (listed as Homo sapiens) [SEQ ID NO 15] | ++ (20%-49% = ++)
KLDETNNTL (listed as Homo sapiens) [SEQ ID NO 6] | +++ (50%-70%, +++)
KLLEYIEEI (listed as Homo sapiens) [SEQ ID NO 71] | ++ (20%-49% = ++)
FLLDGSANV (listed as Homo sapiens) [SEQ ID NO 73] | ++++ (>70 = ++++)
ALWEKNTHL (listed as Homo sapiens) [SEQ ID NO 82] | +++ (50%-70%, +++)
RLLJAAENFL (RLLAAENFL; listed as Homo sapiens) [SEQ ID NO 49] | ++ (20%-49% = ++)
SLLPVDIRQYL (listed as Homo sapiens) [SEQ ID NO 50] | +++ (50%-70%, +++)
SLIDADPYL (listed as Homo sapiens) [SEQ ID NO 58] | +++ (50%-70%, +++)
SLAPAGVIRV (listed as Homo sapiens) [SEQ ID NO 79] | +++ (50%-70%, +++)
FQYDHEAFL (listed as Homo sapiens) [SEQ ID NO 14] | ++++ (>70 = ++++)
TVIGFLLPFA (listed as Homo sapiens) [SEQ ID NO 16] | ++++ (>70 = ++++)
AMLAVLHTV (listed as Homo sapiens) [SEQ ID NO 64] | ++ (20%-49% = ++)
SLFGNSGILENV (listed as Homo sapiens) [SEQ ID NO 80] | +++ (50%-70%, +++)
YVYQNNIYL (listed as Homo sapiens) [SEQ ID NO 68] | ++ (20%-49% = ++)
RVLPPSALQSV (listed as Homo sapiens) [SEQ ID NO 87] | +++ (50%-70%, +++)
SLAGDVALQQL (listed as Homo sapiens) [SEQ ID NO 63] | ++++ (>70 = ++++)
VLSVVEVTL (listed as Homo sapiens) [SEQ ID NO 10] | ++++ (>70 = ++++)
ALANQKLYSV (listed as Homo sapiens) [SEQ ID NO 83] | +++ (50%-70%, +++)

Substance | Exchange yield
ALFPHLLQPV (listed as Homo sapiens) [SEQ ID NO 43] | +++ (50%-70%, +++)
KLVEFDFLGA (listed as Homo sapiens) [SEQ ID NO 54] | +++ (50%-70%, +++)
RLLDSVSRL (listed as Homo sapiens) [SEQ ID NO 39] | +++ (50%-70%, +++)
FLHHLEIEL (listed as Homo sapiens) [SEQ ID NO 23] | +++ (50%-70%, +++)
GLTDNIHLV (listed as Homo sapiens) [SEQ ID NO 40] | +++ (50%-70%, +++)
KIQEILTQV (listed as Homo sapiens) [SEQ ID NO 66] | ++ (20%-49% = ++)
HLLEDIAHV (listed as Homo sapiens) [SEQ ID NO 92] | ++ (20%-49% = ++)
SLYKGLLSV (listed as Homo sapiens) [SEQ ID NO 56] | ++ (20%-49% = ++)
NLIEKSIYL (listed as Homo sapiens) [SEQ ID NO 4] | ++ (20%-49% = ++)
KVLEILHRV (listed as Homo sapiens) [SEQ ID NO 65] | +++ (50%-70%, +++)
GLAEDIDKGEV (listed as Homo sapiens) [SEQ ID NO 57] | ++ (20%-49% = ++)
FLVDGSWSV (listed as Homo sapiens) [SEQ ID NO 24] | +++ (50%-70%, +++)
ILFPDIIARA (listed as Homo sapiens) [SEQ ID NO 62] | ++++ (>70 = ++++)
VLAPLFVYL (listed as Homo sapiens) [SEQ ID NO 37] | +++ (50%-70%, +++)
AMSSKFFLV (listed as Homo sapiens) [SEQ ID NO 69] | ++ (20%-49% = ++)
AMFENFVSV (listed as Homo sapiens) [SEQ ID NO 91] | +++ (50%-70%, +++)
KIQEMQHFL (listed as Homo sapiens) [SEQ ID NO 2] | +++ (50%-70%, +++)
TLYPHTS (TLYPHTSQV; listed as Homo sapiens) [SEQ ID NO 18] | ++ (20%-49% = ++)
TVAEVIQS V (TVAEVIQSV; listed as Homo sapiens) [SEQ ID NO 27] | +++ (50%-70%, +++)
TLWYRAPEV (listed as Homo sapiens) [SEQ ID NO 7] | ++ (20%-49% = ++)
ILMGTELTQV (listed as Homo sapiens) [SEQ ID NO 84] | ++ (20%-49% = ++)
VLLPVEVATHYL (listed as Homo sapiens) [SEQ ID NO 11] | +++ (50%-70%, +++)
KIVDFSYSV (listed as Homo sapiens) [SEQ ID NO 85] | +++ (50%-70%, +++)
KLLTEVHAA (listed as Homo sapiens) [SEQ ID NO 72] | +++ (50%-70%, +++)
TLTNIIHNL (listed as Homo sapiens) [SEQ ID NO 46] | +++ (50%-70%, +++)
AIMGFIGFFV (listed as Homo sapiens) [SEQ ID NO 45] | + (<20% = +)

Substance | Exchange yield
VLFPNLKTV (listed as Homo sapiens) [SEQ ID NO 35] | ++ (20%-49% = ++)
GLIEIISNA (listed as Homo sapiens) [SEQ ID NO 48] | +++ (50%-70%, +++)
ILQDRLNQV (listed as Homo sapiens) [SEQ ID NO 67] | ++ (20%-49% = ++)
ILFEINPKL (listed as Homo sapiens) [SEQ ID NO 1] | ++++ (>70 = ++++)
ALYDSVILL (listed as Homo sapiens) [SEQ ID NO 75] | ++ (20%-49% = ++)
ALASVIKEL (listed as Homo sapiens) [SEQ ID NO 89] | +++ (50%-70%, +++)
KILEDVVGV (listed as Homo sapiens) [SEQ ID NO 70] | +++ (50%-70%, +++)
ALDENLHQL (listed as Homo sapiens) [SEQ ID NO 3] | ++ (20%-49% = ++)
KLSWDLIYL (listed as Homo sapiens) [SEQ ID NO 32] | +++ (50%-70%, +++)
ALYGRLEVV (listed as Homo sapiens) [SEQ ID NO 81] | ++++ (>70 = ++++)
YLAPFLRNV (listed as Homo sapiens) [SEQ ID NO 51] | +++ (50%-70%, +++)
SLLAQNTSWLL (listed as Homo sapiens) [SEQ ID NO 74] | +++ (50%-70%, +++)
SLWGGDVVL (listed as Homo sapiens) [SEQ ID NO 42] | +++ (50%-70%, +++)
FLIPIYHQV (listed as Homo sapiens) [SEQ ID NO 22] | +++ (50%-70%, +++)
GVLENIFGV (listed as Homo sapiens) [SEQ ID NO 47] | ++++ (>70 = ++++)
SLHFLILYV (listed as Homo sapiens) [SEQ ID NO 38] | + (<20% = +)
VVDKTLLLV (listed as Homo sapiens) [SEQ ID NO 60] | ++ (20%-49% = ++)
ILVSWLPRL (listed as Homo sapiens) [SEQ ID NO 59] | ++++ (>70 = ++++)
SLVAVELEKV (listed as Homo sapiens) [SEQ ID NO 90] | +++ (50%-70%, +++)
ALVDHTPYL (listed as Homo sapiens) [SEQ ID NO 20] | ++ (20%-49% = ++)
SILTIEDGIFEV (listed as Homo sapiens) [SEQ ID NO 41] | ++ (20%-49% = ++)
RLLGPSAAADILQL (listed as Homo sapiens) [SEQ ID NO 17] | ++ (20%-49% = ++)
KIYNEFISV (listed as Homo sapiens) [SEQ ID NO 30] | ++ (20%-49% = ++)
AVVEFLTSV (listed as Homo sapiens) [SEQ ID NO 19] | +++ (50%-70%, +++)
